{"source": "paper PMC8943916", "biological_target": "TIM (the TIM-EGFP-LacI bait of the FRAP experiment, not named)", "experiment": "FRAP", "data": [{"substance": "TagRFP-IWS1-TND (from UniProt Q96ST2 614-692) (domain or fragment)", "values": [{"measurement": "FRAP half-life", "value": 11.7, "unit": "s"}]}]}
